Where a chain is given by its changes, count along the chain named. Values belong to the binder of their own block, whether it stands above or below them.
Legend:
human EPOR on TF-1 cells = target: T1, human EPOR on TF-1 cells (human, UniProt P19235 25-508); test: cell-based or functional assay
T1 sequence (looked up): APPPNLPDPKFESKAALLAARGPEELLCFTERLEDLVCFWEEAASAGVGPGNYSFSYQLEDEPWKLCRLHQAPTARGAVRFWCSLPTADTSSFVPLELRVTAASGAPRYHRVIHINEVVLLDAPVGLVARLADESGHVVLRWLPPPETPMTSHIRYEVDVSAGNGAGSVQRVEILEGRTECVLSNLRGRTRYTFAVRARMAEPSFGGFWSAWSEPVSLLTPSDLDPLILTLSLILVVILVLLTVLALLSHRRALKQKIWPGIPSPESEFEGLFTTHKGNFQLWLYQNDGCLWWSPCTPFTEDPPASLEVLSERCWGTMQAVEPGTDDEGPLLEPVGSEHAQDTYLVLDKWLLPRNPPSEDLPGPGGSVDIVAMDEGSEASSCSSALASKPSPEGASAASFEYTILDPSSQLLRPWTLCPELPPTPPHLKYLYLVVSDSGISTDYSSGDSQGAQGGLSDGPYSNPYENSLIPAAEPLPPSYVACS

[1] = target: T2, human EPOR-Fc (Catalog No. 963-ER-050, R&D Systems) (human, UniProt P19235 25-250, biotinylated in Example 10 only); test: biolayer interferometry (ForteBio); biotinylated human EPOR on streptavidin tips, EPO analog 20-0.25 nM, 1:1 fit
T2 construct: extracellular domain; treated as one molecule; also called extracellular domain of human EPOR; human EPO receptor; not shown: Fc part of the bought EPOR-Fc
T2 sequence (looked up): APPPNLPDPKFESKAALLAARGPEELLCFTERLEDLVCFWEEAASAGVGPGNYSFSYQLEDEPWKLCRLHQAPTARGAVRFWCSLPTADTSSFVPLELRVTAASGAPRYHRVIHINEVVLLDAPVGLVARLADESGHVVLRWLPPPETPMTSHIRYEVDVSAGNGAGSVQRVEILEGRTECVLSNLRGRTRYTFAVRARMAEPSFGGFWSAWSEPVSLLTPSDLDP
From the text: Dissociation was monitored for 600 seconds. A buffer only blank curve was subtracted to correct for any drift.

[2] = target: T3, Feline EPOR201_ECD_human Fc (feline EPOR fused to human Fc, biotinylated with EZ-Link NHS-LC-biotin); test: biolayer interferometry (ForteBio); biotinylated receptor-Fc on streptavidin tips, EPO analog 150-1.9 nM, 1:1 fit
T3 construct: also called fEPOR201_ECD-Fc; feline EPOR201-ECD-Fc
Description: (§1) The binding analysis was performed as follows. Briefly, fEPOR201_ECD-Fc and fEPOR202_ECD-Fc were biotinylated using EZ-Link NHS-LC-biotin (Catalog No. 21336, Thermo Scientific). The free unreacted biotin was removed by dialysis. Biotinylated fEPOR201_ECD-Fc and fEPOR202_ECD-Fc were captured on streptavidin sensor tips (Catalog No. 18-509, ForteBio).
(§2) Dissociation was monitored for 600 seconds. A buffer only blank curve was subtracted to correct for any drift. The data were fit to a 1:1 binding model using ForteBio™ data analysis software to determine the kₒₙ (association rate constant), koff (dissociation rate constant) and the Kd (dissociation constant). […] The buffer for dilutions and all binding steps was: 200 mM phosphate, 150 mM NaCl, 0.02% Tween-20, 0.05% sodium azide, and 0.1 mg BSA, pH7.4.

[3] = target: T4, Feline EPOR202_ECD_human Fc (feline EPOR fused to human Fc, biotinylated with EZ-Link NHS-LC-biotin); test: as above
T4 construct: also called fEPOR202_ECD-Fc; feline EPOR202-ECD-Fc
Description: as §1, §2

[4] = target: T2, human EPOR-Fc (Catalog No. 963-ER-050, …); test: ELISA 2: as ELISA 1, EPO sample treated with neuraminidase first
Description: (§3) A 96-well plate was coated with a mouse anti-EPO specific antibody (Catalog No. MAB287, clone 9C21D11, R&D Systems) to capture the EPO polypeptides. The EPO-bound wells were incubated with human EPOR-Fc at a concentration of 200 ng/mL and the bound EPOR was detected by anti-human Fc HRP conjugated antibody. The ELISA was performed a second time, but the three samples of EPO polypeptides were first treated with neuraminidase to remove the sialic acid.

[5] = target: T2, human EPOR-Fc (Catalog No. 963-ER-050, …); test: ELISA 1: EPO analog captured by mouse anti-EPO antibody (MAB287), human EPOR-Fc at 200 ng/mL, anti-human Fc HRP
Description: as §3

[6] = target: T5, Feline EPOR203_39A_ECD_Fc (feline EPOR fused to human Fc); test: sandwich ELISA: plate coated with anti-human EPO antibody, Analog 6-30 EV Mature captured in 2-fold dilutions from 500 ng/mL, feline EPOR203_39A_ECD_Fc added at 200 ng/mL, detected with anti-human Fc HRP; 4-parameter fit. The axis 'Conc' prints no unit; ng/mL is from paragraph 333
T5 construct: also called feline EPOR203-ECD-Fc; fEPOR203_ECD-Fc
Description: Feline EPOR203_39A_ECD_Fc (200 ng/mL in 1% BSA-PBST buffer) was added to each well and binding allowed to proceed for 1 hour at room temperature. A rabbit anti-human Fc antibody and horseradish peroxidase (HRP) conjugate (0.2 μg/mL) was used for detection and left in the wells for 1 hour at room temperature. 3,3,5,5′-Tetramethylbenzidine (TMB) was applied to the wells as the HRP substrate and kept in the well for 5 to 7 minutes for signal development.

T4 sequence (chain, as listed by the source limits assumed): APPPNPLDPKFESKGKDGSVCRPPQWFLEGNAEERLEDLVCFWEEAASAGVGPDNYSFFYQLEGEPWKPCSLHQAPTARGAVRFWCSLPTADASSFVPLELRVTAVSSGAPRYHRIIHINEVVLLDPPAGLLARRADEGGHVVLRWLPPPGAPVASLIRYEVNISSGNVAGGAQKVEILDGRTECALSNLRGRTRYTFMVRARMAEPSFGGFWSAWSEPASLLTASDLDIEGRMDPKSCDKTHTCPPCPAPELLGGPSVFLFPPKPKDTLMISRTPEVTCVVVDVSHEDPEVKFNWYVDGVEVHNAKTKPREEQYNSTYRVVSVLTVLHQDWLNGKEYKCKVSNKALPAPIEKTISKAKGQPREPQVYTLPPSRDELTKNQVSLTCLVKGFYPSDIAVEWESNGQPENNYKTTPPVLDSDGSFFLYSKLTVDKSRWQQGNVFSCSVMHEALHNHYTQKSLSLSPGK
T3 sequence (chain, as listed by the source limits assumed): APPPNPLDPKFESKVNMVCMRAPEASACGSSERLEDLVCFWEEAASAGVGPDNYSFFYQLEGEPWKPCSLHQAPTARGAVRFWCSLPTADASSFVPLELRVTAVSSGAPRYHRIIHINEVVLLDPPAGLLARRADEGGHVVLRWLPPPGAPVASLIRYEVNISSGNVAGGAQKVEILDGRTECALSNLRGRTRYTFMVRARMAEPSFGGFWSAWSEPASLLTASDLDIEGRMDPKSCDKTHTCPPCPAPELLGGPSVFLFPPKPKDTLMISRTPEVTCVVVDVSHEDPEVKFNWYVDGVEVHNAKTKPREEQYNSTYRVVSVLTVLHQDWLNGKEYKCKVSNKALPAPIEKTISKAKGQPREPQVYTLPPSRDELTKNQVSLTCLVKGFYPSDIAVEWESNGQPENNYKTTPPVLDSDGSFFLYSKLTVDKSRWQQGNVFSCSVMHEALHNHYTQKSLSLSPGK
T5 sequence (chain, as listed by the source limits assumed): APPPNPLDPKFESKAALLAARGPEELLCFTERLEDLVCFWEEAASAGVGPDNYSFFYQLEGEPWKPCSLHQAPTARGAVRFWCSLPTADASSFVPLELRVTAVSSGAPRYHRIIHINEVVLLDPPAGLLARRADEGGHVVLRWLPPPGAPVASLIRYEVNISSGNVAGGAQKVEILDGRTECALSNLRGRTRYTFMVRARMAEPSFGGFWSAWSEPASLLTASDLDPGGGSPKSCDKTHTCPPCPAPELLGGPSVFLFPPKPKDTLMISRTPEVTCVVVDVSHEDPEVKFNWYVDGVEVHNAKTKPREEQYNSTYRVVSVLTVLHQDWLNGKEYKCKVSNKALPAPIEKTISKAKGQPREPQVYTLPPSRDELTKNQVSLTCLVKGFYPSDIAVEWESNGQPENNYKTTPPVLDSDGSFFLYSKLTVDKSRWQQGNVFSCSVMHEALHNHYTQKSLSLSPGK

B1: Feline EPO Analog 6-30 G18V87 mature form (Analog 6-30 GV Mature) (ligand)
chain: APPRLICDSRVLERYILGAREAENVTMGCNETCSFSENITVPDTKVNFYTWKRMDVGQQAVEVWQGLALLSEAILRGQALLANSSQVNETLQLHVDKAVSSLRSLTSLLRALGAQKEATSLPEATSAAPLRTFTVDTLCKLFRIYSNFLRGKLTLYTGEACRRGDR
modifications: N-linked glycosylated and sialylated (CHO DG-44 expressed); fraction not specified in this assay
notes: also called feline EPO Analog 6-30 GV Mature
EC50, TF-1 cell proliferation (MTT) (human EPOR on TF-1 cells): 0.3 IU/mL
Kd [1]: 0.0976 nM
Kd [2]: 0.4 nM
Kd [3]: 0.17 nM

B5: Analog 6-30 EV Mature (acidic fraction) (ligand)
chain: B1 chain with G18E
modifications: N-linked glycosylated; high sialylation (acidic fraction)
notes: Same polypeptide as m4; glycoform fraction; In ELISA 2 it was treated with neuraminidase first; also called acidic (high sialylation) fraction of Analog 6-30 EV Mature
EC50 [4]: 0.02 µg/mL
EC50 [5]: 0.045 µg/mL

The remaining lines, values ahead:

EC50 [4]: 0.031 µg/mL
EC50 [5]: 0.035 µg/mL
B2: Analog 6-30 GV Mature (basic fraction) (ligand)
chain: B1 chain
modifications: N-linked glycosylated; low sialylation, isoelectric point range of about 4 to about 5 (Example 15), about 3.5 to about 5 (Example 6)
notes: Same polypeptide as m1; glycoform fraction; In ELISA 2 it was treated with neuraminidase first; also called basic (low sialylation) fraction of Analog 6-30 GV Mature

EC50, TF-1 cell proliferation (MTT) (human EPOR on TF-1 cells): 0.00478 µg/mL
EC50 [6]: 0.088 µg/mL
B3: Feline EPO Analog 6-30 E18V87 mature form (Analog 6-30 EV Mature) (ligand)
chain: B1 chain with G18E
modifications: N-linked glycosylated and sialylated (CHO DG-44 expressed); fraction not specified in this assay
notes: also called Feline Analog 6-30 EV Mature; Sample 1

EC50 [4]: 0.018 µg/mL
EC50 [5]: 0.1 µg/mL
B4: Analog 6-30 GV Mature (acidic fraction) (ligand)
chain: B1 chain
modifications: N-linked glycosylated; high sialylation, isoelectric point range of about 2 to about 3.5
notes: Same polypeptide as m1; glycoform fraction; In ELISA 2 it was treated with neuraminidase first; also called acidic (high sialylation) fraction of Analog 6-30 GV Mature

— US20210032305A1 (KINDRED BIOSCIENCES, published 2021)
